Data as given in patent US20230212587A1, “Mutant Hydroxyphenylpyruvate Dioxygenase Polypeptide, Encoding Gene Thereof and Use Therefor” (Beijing Dabeinong Biotechnology Co., Ltd., priority 2019, published 2023).

System: Arabidopsis thaliana T1 plants
Experiment: Topramezone tolerance of transgenic Arabidopsis thaliana T1 plants (pesticide damage grade by bleached leaf area, score, resistance evaluation)
Format: in vivo
Conditions: HPPDs from different species, 7 DAT; for Classification and statistics of pesticide damage grade Grade 0 / Classification and statistics of pesticide damage grade Grade 1 / Classification and statistics of pesticide damage grade Grade 2 / Classification and statistics of pesticide damage grade Grade 3: number of plants (of 16) in this grade; for Scores: score for pesticide damage 0-100
Method in brief: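 Eighteen days after sowing, wild-type and HPPD-transgenic T1 Arabidopsis receive a topramezone spray at 1×, 2× or 4× field rate (25–100 g ai/ha) or water. Seven days later each plant is graded by its proportion of bleached leaf area.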

Molecule	Classification and statistics of pesticide damage grade Grade 0 (topramezone 25 g ai/ha (1x))	Classification and statistics of pesticide damage grade Grade 1 (topramezone 25 g ai/ha (1x))	Classification and statistics of pesticide damage grade Grade 2 (topramezone 25 g ai/ha (1x))	Classification and statistics of pesticide damage grade Grade 3 (topramezone 25 g ai/ha (1x))	Classification and statistics of pesticide damage grade Grade 0 (topramezone 100 g ai/ha (4x))	Classification and statistics of pesticide damage grade Grade 1 (topramezone 100 g ai/ha (4x))	Classification and statistics of pesticide damage grade Grade 2 (topramezone 100 g ai/ha (4x))	Classification and statistics of pesticide damage grade Grade 3 (topramezone 100 g ai/ha (4x))	Scores (topramezone 25 g ai/ha (1x))	Scores (topramezone 100 g ai/ha (4x))	Resistance evaluation (topramezone 25 g ai/ha (1x))	Resistance evaluation (topramezone 100 g ai/ha (4x))
S1HPPD-02: native Solanum lycopersicum HPPD, SEQ ID NO: 129 (protein, SlHPPD Amino Acid Sequence (Solanum lycopersicum)) MGKQAAAAADDQQLPGDIEDKFKLVGFNHFVRTNPRSDFFTVKRFHHIEFWCGDATNTARRFSWGLGLPIAAISDLSTGNSVHASYLLRSSSSSQLQFLFTAPYSSAISTSSSASIPTFSVSSHRSFTATHGLGVRAIALEVENSRLAFSTCVAHGAKPVSEPVILNDEVVIAEVHLYGDVVLRFVSFLKDSNCFVFLPGFESVEGAQLDYGIRRLDHAVGNVPELGPVVEYIKSFTGFHEFAEFTAEDVGTAESGLNSVVLANNDETVLFPLNEPVYGTKRKSQIQTYLEHNEGAGVQHLALVTEDIFRTLREMRKRSGIGGFEFMPSPPPTYYKNLKTRAGDILSDEQIQECEELGILVDRDDQGTLLQIFTKPVGDRPTIFLEIIQRIGCMLKNEEGELYQKGGCGGFGKGNFSELFKSIEEYEKTLEAKQNTQVAIA	0	0	0	16	0	0	0	16	100	100	non-resistant (non-resistant plants (scores 68-100))	non-resistant (non-resistant plants (scores 68-100))
S1HPPDm-F372A-02: Solanum lycopersicum HPPD mutant F372A, SEQ ID NO: 132 (protein, SlHPPDm-F372A Amino Acid Sequence) MGKQAAAAADDQQLPGDIEDKFKLVGFNHFVRTNPRSDFFTVKRFHHIEFWCGDATNTARRFSWGLGLPIAAISDLSTGNSVHASYLLRSSSSSQLQFLFTAPYSSAISTSSSASIPTFSVSSHRSFTATHGLGVRAIALEVENSRLAFSTCVAHGAKPVSEPVILNDEVVIAEVHLYGDVVLRFVSFLKDSNCFVFLPGFESVEGAQLDYGIRRLDHAVGNVPELGPVVEYIKSFTGFHEFAEFTAEDVGTAESGLNSVVLANNDETVLFPLNEPVYGTKRKSQIQTYLEHNEGAGVQHLALVTEDIFRTLREMRKRSGIGGFEFMPSPPPTYYKNLKTRAGDILSDEQIQECEELGILVDRDDQGTLLQIATKPVGDRPTIFLEIIQRIGCMLKNEEGELYQKGGCGGFGKGNFSELFKSIEEYEKTLEAKQNTQVAIA	1	1	14	0	0	1	4	11	60	88	poorly resistant (poorly resistant plants (scores 34-67))	non-resistant (non-resistant plants (scores 68-100))
AhHPPD-02: native Arachis hypogaea HPPD, SEQ ID NO: 135 (protein, listed as Arachis hypogaea, AhHPPD Amino Acid Sequence) MATAYTYAHAVTYCNSQHNPPIIPILSTNQHPPRVTLPSSIPHFISTITTFNLKHFPSHSLHTVMVTQTQQNAPSSSPELGFKLVGFKNFVRTNPKSDRFKVIRFHHVEFWCTDATNTASRFSWGLGMPIVAKSDLSTGNAVHASYLLRSGDLNFLFSAPYSASIAGDGASASFPSFSASDCHSFAAKHGLAVRAVAIEVEDASAAFSASVANGAKPVSPAVLLDNSVGFAEVHLYGDVVLRYISYSAPTRESNLNPTLRFLPGFEAVEADSSFPELDYGIRRLDHAVGNVPELAPAVNYLKKFTGFHEFAEFTAEDVGTSESGLNSVVLASNDEMVLLPLNEPVYGTKRKSQIETYLEHNEGAGLQHLALVSEDIFRTLREMRKRSTIGGFQFMPSPPPTYYRNLKKRAGDVLSDEQIKECEELGILVDRDDQGTLLQIFTKPVGDRPTIFIEIIQRIGCMLKDEEGKVYQKGGCGGFGKGNFSELFKSIEEYEKTLESRRTA	0	0	0	16	0	0	0	16	100	100	non-resistant (non-resistant plants (scores 68-100))	non-resistant (non-resistant plants (scores 68-100))
CsHPPDm-F372A-02: Cucumis sativus HPPD mutant F372A, SEQ ID NO: 120 (protein, CsHPPDm-F372A Amino Acid Sequence) MGKEADFPRAPSEATDGGATASQSEFELQGFDNFIRTNPKSDRFKVKRFHHIEFWCTDATNVARRFSWGLGMQIVAKSDLSTGNMTHASYLLRSGHLCFLFTAPYSPSIAAAQNLTPASTASIPSFDHSVCRSFSGTHGFGARAIALEVEDAEIAFRTSVAHGAKPSCPPIVLENRAVLSEVHLYGDVVLRYISYKNPVSGDNGENKPDEWFLPKFEAMEETASFPLDFGIRRLDHAVGNVPELGPAVSYLKGFTGFHEFAEFTAEDVGTSESGLNSMVLANNEEMVLLPINEPVFGTKRKSQIQTYLEHNEGAGVQHLALMSEDIFRTLREMRKRSSVGGFEFMPSPPPTYYKNLKSRAGDVLTDEQIKECEELGILVDKDDQGTLLQIATKPVGDRPTIFIEIIQRLGCMMKDEEGKAFQKGGCGGFGKGNFSELFKSIEEYEKTLEAKRVSE	0	0	16	0	0	0	0	16	67	100	poorly resistant (poorly resistant plants (scores 34-67))	non-resistant (non-resistant plants (scores 68-100))
StHPPD-02: native Solanum tuberosum HPPD, SEQ ID NO: 123 (protein, listed as Solanum tuberosum, StHPPD Amino Acid Sequence) MGKQAATATATATATADDQQLPADIEDKYKLVGFNNFVRTNPRSDLFNVKRFHHIEFWCGDATNTARRFSWGLGLPIAAKSDLSTGNSVHASYLLRSSSSQLQFLFTAPYSPAISTPSSSSIPTFSVSSHRSFTETHGLGVRAIALEVENSRLAFSTCVSHGAKPVSEPVILNDEVVISEVHLYGDVVLRFVSFLKDSNRFVFLPGFELVEGAQLDYGIRRLDHAVGNVPQLGPVVEYIKSFTGFHEFAEFTAEDVGTAESGLNSVVLANNDETVLFPLNEPVYGTKRKSQIQTYLEHNEGAGVQHLALVTEDIFRTLREMRKRSGIGGFEFMPSPPPTYYKNLKSRAGDILSDEQIKECEELGILVDRDDQGTLLQIFTKPVGDRPTIFLEIIQRIGCMLQNAEGELYQKGGCGGFGKGNFSELFKSIEEYEKTLEAKQNTQVAIA	0	0	0	16	0	0	0	16	100	100	non-resistant (non-resistant plants (scores 68-100))	non-resistant (non-resistant plants (scores 68-100))
StHPPDm-F372A-02: Solanum tuberosum HPPD mutant F372A, SEQ ID NO: 126 (protein, StHPPDm-F372A Amino Acid Sequence) MGKQAATATATATATADDQQLPADIEDKYKLVGFNNFVRTNPRSDLFNVKRFHHIEFWCGDATNTARRFSWGLGLPIAAKSDLSTGNSVHASYLLRSSSSQLQFLFTAPYSPAISTPSSSSIPTFSVSSHRSFTETHGLGVRAIALEVENSRLAFSTCVSHGAKPVSEPVILNDEVVISEVHLYGDVVLRFVSFLKDSNRFVFLPGFELVEGAQLDYGIRRLDHAVGNVPQLGPVVEYIKSFTGFHEFAEFTAEDVGTAESGLNSVVLANNDETVLFPLNEPVYGTKRKSQIQTYLEHNEGAGVQHLALVTEDIFRTLREMRKRSGIGGFEFMPSPPPTYYKNLKSRAGDILSDEQIKECEELGILVDRDDQGTLLQIATKPVGDRPTIFLEIIQRIGCMLQNAEGELYQKGGCGGFGKGNFSELFKSIEEYEKTLEAKQNTQVAIA	4	12	0	0	0	1	4	11	25	88	moderately resistant (moderately resistant plants (scores 16-33))	non-resistant (non-resistant plants (scores 68-100))
